One molecule from patent CN113501876A (WEST CHINA HOSPITAL SICHUAN UNIV, dated 2021) can be followed below.

The target in assay [1] is T1, 蛋白激酶p38δ (p38δ-2×Strep) (Homo sapiens (Human), UniProt O15264 1-365).
T1 construct: Expressed from pET28a-p38δ-2×Strep in E. coli BL21(DE3) and purified on MagStrep beads; The tag is placed C-terminal on the strength of the vector name only; Any further vector residues are not described; not shown: 2×Strep tag
T1 sequence: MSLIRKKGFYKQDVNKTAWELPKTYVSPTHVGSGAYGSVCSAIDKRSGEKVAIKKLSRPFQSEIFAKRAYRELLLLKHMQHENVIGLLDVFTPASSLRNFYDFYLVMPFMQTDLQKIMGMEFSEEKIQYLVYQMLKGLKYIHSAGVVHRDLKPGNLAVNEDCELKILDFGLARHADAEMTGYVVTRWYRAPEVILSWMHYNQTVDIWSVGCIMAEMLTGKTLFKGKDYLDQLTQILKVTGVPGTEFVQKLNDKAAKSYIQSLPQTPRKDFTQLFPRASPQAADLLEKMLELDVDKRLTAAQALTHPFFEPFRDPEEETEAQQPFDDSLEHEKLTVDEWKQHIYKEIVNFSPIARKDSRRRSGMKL
As to the kind of experiment: indirect ELISA, p38δ coated, nanobody at 0-6.4 μM, anti-FLAG detection, 4-parameter fit. Background: ELISA stands for enzyme-linked immunosorbent assay.

For assay [2], the target named is T2, p38γ (p38γ-2×Strep) (Homo sapiens (Human), UniProt P53778 1-367).
T2 construct: Expressed from pET28a-p38γ-2×Strep in E. coli; not shown: 2×Strep tag
T2 sequence: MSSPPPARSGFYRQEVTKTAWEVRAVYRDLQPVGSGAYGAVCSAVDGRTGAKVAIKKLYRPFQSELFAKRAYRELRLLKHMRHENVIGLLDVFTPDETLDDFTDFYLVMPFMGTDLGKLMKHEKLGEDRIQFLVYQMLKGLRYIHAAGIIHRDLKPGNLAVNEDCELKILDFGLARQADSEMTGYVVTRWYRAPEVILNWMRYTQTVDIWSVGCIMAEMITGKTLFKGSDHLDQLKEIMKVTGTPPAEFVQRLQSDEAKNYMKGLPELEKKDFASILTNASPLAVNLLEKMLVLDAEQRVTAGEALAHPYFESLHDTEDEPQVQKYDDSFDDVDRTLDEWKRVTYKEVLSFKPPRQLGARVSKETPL
As to the kind of experiment: ELISA, p38 proteins coated on the plate, nanobody periplasmic extract, anti-FLAG detection, OD450.

B1: 纳米抗体Nb13-1 (VHH)
VHH: QVQLVESGGALVQPGGSLRLSCAASGWWGQRGWLRWYRQAPGKEREWVCGISLRRNRYSYEDSVKGRFTCSRDDARNTVYLQLNSLKPEDTAVYYCAPLSLLHDEDNHSSNYWGQGTQVTVSS
notes: Expressed from pET22b-NB-FLAG in E. coli BL21(DE3); It was used as periplasmic extract in several assays; also called 特异性结合蛋白激酶p38δ的纳米抗体; not shown: C-terminal FLAG tag fused in pET22b
With B1, the affinity in assay [1], expressed as Kd, was 1.32 µM. Besides, the binding result in assay [2] is reported as “no binding”.
